Measured values from patent publication US20040115195A1.

Target: PTH-1 receptor (human) (UniProt Q03431)
Experiment: cell-based or functional assay

Chain of UniProt Q03431 (Q03431 27-593): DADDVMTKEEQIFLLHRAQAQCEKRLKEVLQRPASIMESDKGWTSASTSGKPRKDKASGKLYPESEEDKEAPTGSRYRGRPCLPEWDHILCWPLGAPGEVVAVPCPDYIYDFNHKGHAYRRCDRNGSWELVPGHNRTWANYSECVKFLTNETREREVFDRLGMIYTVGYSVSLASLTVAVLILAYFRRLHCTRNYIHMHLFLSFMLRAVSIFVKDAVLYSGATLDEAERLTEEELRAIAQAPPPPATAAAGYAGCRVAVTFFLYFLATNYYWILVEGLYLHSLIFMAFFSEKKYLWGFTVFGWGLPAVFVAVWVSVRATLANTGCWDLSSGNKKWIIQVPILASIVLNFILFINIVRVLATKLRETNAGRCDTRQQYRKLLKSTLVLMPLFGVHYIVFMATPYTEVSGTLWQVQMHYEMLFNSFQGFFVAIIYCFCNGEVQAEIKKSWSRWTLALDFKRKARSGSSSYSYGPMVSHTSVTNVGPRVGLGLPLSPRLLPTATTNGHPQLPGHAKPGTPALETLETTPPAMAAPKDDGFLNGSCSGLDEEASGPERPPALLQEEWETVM

**Q.** For “human PTH 1-34 (from UniProt P01270 32-65) (peptide)”, which intracellular cAMP levels in hOB-01-C1-PS-09 cells preincubated 48 hr at 39 C, treated 10 min at 37 C is on record?
**A.** 5 to 6 fold
